# Measurements as given in IntAct's records for PubMed 19749176.
# B1: Serine/threonine-protein phosphatase PP1-1 (Saccharomyces cerevisiae), P20604 (parent)
# chain: MVSRGPDEWLETIKKCQALTENEMKQLCEMVKELLMEESNIQPVQTPVTVCGDIHGQFHDLLELFRTAGGFPDDINYIFLGDYVDRGYYSLETFTLLMCLKVKYPAKITLVRGNHESRQITQVYGFYEECLNKYGSTTVWKYCCQVFDFLTLAAIIDGKILCVHGGLSPEIRMLDQIRVLSRAQEVPHEGGFSDLLWSDPDNVEAWQVSPRGAGWLFGSKVAREFNHVNGLNLIARAHQLVMEGFKYHFPEKDVVTVWSAPNYCYRCGNVASVMKVDEDLEPTFKIFSAVPDDYIRESTANHNNQRAGYFL
# partner: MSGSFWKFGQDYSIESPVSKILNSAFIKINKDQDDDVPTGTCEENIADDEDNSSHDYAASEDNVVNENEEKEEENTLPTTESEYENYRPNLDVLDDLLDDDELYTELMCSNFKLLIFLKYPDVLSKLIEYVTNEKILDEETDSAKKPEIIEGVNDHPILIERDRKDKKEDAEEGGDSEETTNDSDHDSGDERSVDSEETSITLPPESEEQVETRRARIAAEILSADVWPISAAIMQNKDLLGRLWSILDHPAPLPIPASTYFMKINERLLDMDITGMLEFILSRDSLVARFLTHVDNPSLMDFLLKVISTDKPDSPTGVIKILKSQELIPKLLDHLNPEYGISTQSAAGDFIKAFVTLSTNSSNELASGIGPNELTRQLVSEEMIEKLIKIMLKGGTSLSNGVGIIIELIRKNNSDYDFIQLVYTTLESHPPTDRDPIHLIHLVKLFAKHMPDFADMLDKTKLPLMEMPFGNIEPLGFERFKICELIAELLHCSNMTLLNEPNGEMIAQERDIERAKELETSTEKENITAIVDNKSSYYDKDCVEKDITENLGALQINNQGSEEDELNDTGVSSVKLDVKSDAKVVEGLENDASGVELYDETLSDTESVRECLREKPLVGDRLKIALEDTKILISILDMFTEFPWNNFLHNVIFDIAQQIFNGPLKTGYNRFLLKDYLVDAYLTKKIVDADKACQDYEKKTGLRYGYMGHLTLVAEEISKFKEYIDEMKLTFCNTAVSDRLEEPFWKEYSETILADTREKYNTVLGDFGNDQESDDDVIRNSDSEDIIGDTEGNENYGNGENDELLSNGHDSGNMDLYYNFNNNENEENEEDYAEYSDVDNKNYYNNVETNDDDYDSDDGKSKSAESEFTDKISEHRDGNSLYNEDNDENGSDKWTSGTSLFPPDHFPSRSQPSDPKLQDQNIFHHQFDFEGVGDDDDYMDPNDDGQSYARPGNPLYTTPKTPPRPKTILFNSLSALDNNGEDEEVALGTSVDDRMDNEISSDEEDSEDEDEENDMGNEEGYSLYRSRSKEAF
# B2: Serine/threonine-protein phosphatase PP1-1 (Saccharomyces cerevisiae), P20604 (parent)
# chain: B1 chain
# partner: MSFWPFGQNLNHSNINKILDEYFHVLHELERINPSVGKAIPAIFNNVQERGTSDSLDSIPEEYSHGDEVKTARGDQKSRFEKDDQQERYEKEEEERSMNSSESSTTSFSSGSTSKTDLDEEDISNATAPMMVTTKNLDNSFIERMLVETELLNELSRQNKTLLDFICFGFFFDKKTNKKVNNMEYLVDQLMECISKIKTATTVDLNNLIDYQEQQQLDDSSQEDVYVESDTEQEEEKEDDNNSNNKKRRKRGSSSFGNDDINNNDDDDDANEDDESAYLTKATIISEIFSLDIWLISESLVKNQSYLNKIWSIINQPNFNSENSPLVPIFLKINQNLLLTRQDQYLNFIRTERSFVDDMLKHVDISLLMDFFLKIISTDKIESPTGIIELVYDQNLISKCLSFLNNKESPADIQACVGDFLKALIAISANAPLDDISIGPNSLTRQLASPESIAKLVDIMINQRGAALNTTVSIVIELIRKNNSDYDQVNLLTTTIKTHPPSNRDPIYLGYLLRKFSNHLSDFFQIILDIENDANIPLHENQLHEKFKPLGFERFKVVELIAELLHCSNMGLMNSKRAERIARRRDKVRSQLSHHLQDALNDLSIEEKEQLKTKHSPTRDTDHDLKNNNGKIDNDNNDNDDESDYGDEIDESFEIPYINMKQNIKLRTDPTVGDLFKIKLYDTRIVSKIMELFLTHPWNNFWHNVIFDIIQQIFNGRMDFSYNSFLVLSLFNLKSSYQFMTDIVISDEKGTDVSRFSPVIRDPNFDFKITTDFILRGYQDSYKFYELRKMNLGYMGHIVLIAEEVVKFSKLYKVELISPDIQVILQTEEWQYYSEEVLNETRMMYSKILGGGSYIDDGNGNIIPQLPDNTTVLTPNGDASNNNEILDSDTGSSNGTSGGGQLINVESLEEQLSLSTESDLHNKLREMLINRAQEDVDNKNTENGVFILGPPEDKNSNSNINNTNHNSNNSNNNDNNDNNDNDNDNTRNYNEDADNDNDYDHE
# Variants of: B1
# Conditions: with sa190_yeast SAP190, P36123
row,effect of a mutation on the interaction,Variant
1,decreasing interaction,E37A;E38A

# Variants of: B2
# Conditions: with sa155_yeast SAP155, P43612
row,effect of a mutation on the interaction,Variant
1,decreasing interaction,E37A;E38A
